# Values quoted from earlier work as cited in publication PMC12489035.
# Target: APP tail cytoplasmic tail (Homo sapiens) (UniProt P05067)
# Sequence (P05067 724-770): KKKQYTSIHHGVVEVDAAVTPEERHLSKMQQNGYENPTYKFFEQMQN
# Chain of AP-4 mu4 subunit (O00189 whole entry): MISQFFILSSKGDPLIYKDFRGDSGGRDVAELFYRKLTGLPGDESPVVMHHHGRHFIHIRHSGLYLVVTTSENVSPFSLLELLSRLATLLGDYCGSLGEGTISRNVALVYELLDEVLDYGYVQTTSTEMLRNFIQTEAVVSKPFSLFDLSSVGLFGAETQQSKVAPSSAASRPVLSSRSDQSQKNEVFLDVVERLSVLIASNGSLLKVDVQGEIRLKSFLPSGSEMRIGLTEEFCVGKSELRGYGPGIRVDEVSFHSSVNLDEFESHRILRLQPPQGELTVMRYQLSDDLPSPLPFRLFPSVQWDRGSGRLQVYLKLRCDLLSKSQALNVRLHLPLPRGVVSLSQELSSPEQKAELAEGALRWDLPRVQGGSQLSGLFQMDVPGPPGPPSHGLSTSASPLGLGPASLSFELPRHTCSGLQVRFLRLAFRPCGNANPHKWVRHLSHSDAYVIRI
substance,measurement,value
AP-4 mu4 subunit (from UniProt O00189),Kd,27.7 µM
